# Assay results: patent publication US20240366776A1 (Hoffmann-La Roche, published 2024)
# B1: PD1-IL2-R02-A11 (scFv, V domains shown)
# VH: QVQLVQSGAEVKKPGASVKVSCKASGHTFTRYYMHWVRQAPGQGLEWMGIINPSGGYATYAQKFQGRVTMTRDTSTSTVYMELSSLRSEDTAVYYCASGWDVWGQGTLVTVSS
# VL: DIQMTQSPSSLSASVGDRVTITCRASQSINSWLAWYQQKPGKAPKLLIYATSTLESGVPSRFSGSGSGTDFTLTISSLQPEDFATYYCQQSYSFPPTFGQGTKVEIK
# notes: cf
# B2: PD1-IL2-R02-B05 (scFv)
# chain: QVQLVQSGAEVKKPGASVKVSCKASGYTFTNYYIHWVRQAPGQGLEWMGIINPRAGYTSYALKFQGRVTMTRDTSTSTVYMELSSLRSEDTAVYYCAGGWLDWGQGTLVTVSSASGGGGSGGGGSGGGGSHASDIQMTQSPSSLSASVGDRVTITCRASQSISSWLAWYQQKPGKAPKLLIYAASSLQSGVPSRFSGSGSGTDFTLTISSLQPEDFATYYCQQSFTMPITFGQGTRLEIK
# B3: PD1-R04-C10 (scFv)
# scFv: MSTSTEQKLISEEDLQVQLVQSGAEVKKPGASVKVSCKASGYTFTTYYMHWVRQAPGQGLEWMGIINPSGGGTLYAQKFQGRVTMTRDTSTSTVYMELSSLRSEDTAVYYCAAGLFIWGQGTTVTVSSASGGGGSGGGGSGGGGSHASDIVMTQSPDSLAVSLGERATINCKASQSLLHSSSNKNYLAWYQQKPGQPPKLLIYWASTRESGVPDRFSGSGSGTDFTLTISSLQAEDVAVYYCQQYYSTPITFGPGTKVDIKGSGLNDIFEAQKIEWHEGKPIPNPLLGLDST
# notes: tied by the comment 'PD1_R04_C10- Internal anti-PD1 mAb' of PEP001315
# B4: PD1-IL2-R02-B07 (scFv)
# chain: QVQLVQSGAEVKKPGASVKVSCKASGDTFTRHYVHWVRQAPGQGLEWMGIINPSGGYASYAQKFQGRVTMTRDTSTSTVYMELSSLRSEDTAVYYCAAGLFIWGQGTLVTVSSASGGGGSGGGGSGGGGSHASDIQMTQSPSSLSASVGDRVTITCRASQSIGRWLAWYQQKPGKAPKLLIYSASNLETGVPSRFSGSGSGTDFTLTISSLQPEDFATYYCQQANSFPVTFGPGTKVDIK
# B5: PD1-IL2-R06-E04 (SEQ ID NO: 33) (scFv)
# scFv: QVQLVQSGAEVKKPGASVKVSCKASGYTFTRYYIHWVRQAPGQGLEWMGWINAYNGDTNYAQKLQGRVTMTRDTSTSTVYMELSSLRSEDTAVYYCARDSYYYDSFDYWGQGTLVTVSSASGGGGSGGGGSGGGGSHASDIQMTQSPSSLSASVGDRVTITCRASQTITDWLAWYQQKPGKAPKLLIYGASNLQGGVPSRFSGSGSGTDFTLTISSLQPEDFATYYCQQYYSSWTFGQGTKVEIK
# notes: V5-tagged in the assay
# B6: PD1-IL2-R07-A09 (SEQ ID NO: 34) (scFv)
# scFv: QVQLVQSGAEVKKPGASVKVSCKASGYTFTSYYMHWVRQAPGQGLEWMGIINPSDGSTTYAQSFQGRVTMTRDTSTSTVYMELSSLRSEDTAVYYCASGWDVWGQGTLVTVSSASGGGGSGGGGSGGGGSHASDIVMTQSPDSLAVSLGERATINCKSSQSVFSSANNKNYLAWYQQKPGQPPKLLIYWASTRESGVPDRFSGSGSGTDFTLTISSLQAEDVAVYYCQQYFGTPVTFGGGTKVEIK
# notes: V5-tagged in the assay
# B7: PD1-IL2-R02-C03 (SEQ ID NO: 32) (scFv)
# scFv: QVQLVQSGAEVKKPGASVKVSCKASGYTFPRYHIHWVRQAPGQGLEWMGMINPSGGTTTYAQKFQGRVTMTRDTSTSTVYMELSSLRSEDTAVYYCARDTGLGYYYGSGDFDYWGQGTLVTVSSASGGGGSGGGGSGGGGSHASDIQMTQSPSSLSASVGDRVTITCRASQSISSWLAWYQQKPGKAPKLLIYAASSLQSGVPSRFSGSGSGTDFTLTISSLQPEDFATYYCQQSHSFPLTFGGGTKVEIK
# notes: V5-tagged in the assay
# B8: PD1-R07-A05 (scFv)
# scFv: QVQLVQSGAEVKKPGASVKVSCKASGYTFTTYYVHWVRQAPGQGLEWMGIINPSGGSTSYAQNFQGRVTMTRDTSTSTVYMELSSLRSEDTAVYYCASGWDVWGQGTTVTVSSASGGGGSGGGGSGGGGSHASEIVMTQSPATLSVSPGERATLSCRASQSVNTYLAWYQQKPGQAPRLLIYGASTRATGIPARFSGSGSGTEFTLTISSLQSEDFAVYYCQQYGSSPVTFGQGTRLEIK
# B9: PD1-IL2-R07-A04 (scFv)
# chain: QVQLVQSGAEVKKPGASVKVSCKASGYTFTDYYMHWVRQAPGQGLEWMGIINPRAGYTSYALKFQGRVTMTRDTSTSTVYMELSSLRSEDTAVYYCTSGMDVWGQGTLVTVSSASGGGGSGGGGSGGGGSHASDIQMTQSPSSLSASVGDRVTITCRASQSISTWLAWYQQKPGKAPKLLIYAASSLQSGVPSRFSGSGSGTDFTLTISSLQPEDFATYYCQQSYSFPVTFGQGTKVEIK
# B10: AF4389 (other)
# heavy 1: APTSSSTKKTQLQLEHLLLDLQMILNGINNYKNPKLTDMLTFEFYMPKKATELKHLQCLERELKPLEEVLNLAQSKNFHLRPRDLISNINVIVLELKGSETTFMCEYADETATIVEFLNRWITFCQSIISTLTGGGGSGGGGSGGGGSGGGGSQVQLVQSGAEVKKPGASVKVSCKASGHTFTRYYMHWVRQAPGQGLEWMGIINPSGGYATYAQKFQGRVTMTRDTSTSTVYMELSSLRSEDTAVYYCASGLFIWGQGTLVTVSSAKTTAPSVYPLAPVCGDTTGSSVTLGCLVKGYFPEPVTLTWNSGSLSSGVHTFPAVLQSDLYTLSSSVTVTSSTWPSQSITCNVAHPASSTKVDKKIEPRGPTIKPCPPCKCPAPNAAGGPSVFIFPPKIKDVLMISLSPIVTCVVVDVSEDDPDVQISWFVNNVEVHTAQTQTHREDYNSTLRVVSALPIQHQDWMSGKEFKCKVNNKDLGAPIERTISKPKGSVRAPQVYVLPPPEEEMTKKQVTLTCMVTDFMPEDIYVEWTNNGKTELNYKNTEPVLDSDGSYFMYSDLRVEKKNWVERNSYSCSVVHEGLHNHHTTESFSRTPGK
# heavy 2: QVQLVQSGAEVKKPGASVKVSCKASGHTFTRYYMHWVRQAPGQGLEWMGIINPSGGYATYAQKFQGRVTMTRDTSTSTVYMELSSLRSEDTAVYYCASGLFIWGQGTLVTVSSAKTTAPSVYPLAPVCGDTTGSSVTLGCLVKGYFPEPVTLTWNSGSLSSGVHTFPAVLQSDLYTLSSSVTVTSSTWPSQSITCNVAHPASSTKVDKKIEPRGPTIKPCPPCKCPAPNAAGGPSVFIFPPKIKDVLMISLSPIVTCVVVDVSEDDPDVQISWFVNNVEVHTAQTQTHREDYNSTLRVVSALPIQHQDWMSGKEFKCKVNNKDLGAPIERTISKPKGSVRAPQVYVLPPPEKEMTKKQVSLTCLVKDFMPEDIYVEWTNNGKTELNYKNTEPVLKSDGSYFMYSKLTVEKKNWVERNSYSCSVVHEGLHNHHTTKSFSRTPGGGGSGGGSHHHHHH
# light: DIQMTQSPSSLSASVGDRVTITCRASQSINSWLAWYQQKPGKAPKLLIYATSTLESGVPSRFSGSGSGTDFTLTISSLQPEDFATYYCQQYYRFPVTFGQGTKVEIKRADAAPTVSIFPPSSEQLTSGGASVVCFLNNFYPKDINVKWKIDGSERQNGVLNSWTDQDSKDSTYSMSSTLTLTKDEYERHNSYTCEATHKTSTSPIVKSFNRNEC
# B11: PD1-IL2-R02-A08 (scFv, V domains shown)
# VH: QVQLVQSGAEVKKPGASVKVSCKVSGYTFTSYDINWVRQAPGQGLEWMGWINPNSGDTGYAQKFQGRVTMTRDTSTSTVYMELSSLRSEDTAVYYCARDTGLGYYYGSGDFDYWGQGTLVTVSS
# VL: DIQMTQSPSSLSASVGDRVTITCQASQDIHNYLNWYQQKPGKAPKLLIYDVSNLETGVPSRFSGSGSGTDFTLTISSLQPEDFATYYCQQAISFPLTFGGGTKVEIK
# notes: cf
# B12: PD1-IL2-R02-C02 (SEQ ID NO: 31) (scFv)
# scFv: QVQLVQSGAEVKKPGVSVKVSCKASGYTFPRSYIHWVRQAPGQGLEWMGWINPHSGDTYYAQNFQGRVTMTRDTSTSTVYMELSSLRSEDTAVYYCARDTGLGYYYGSGDFDYWGQGTLVTVSSASGGGGSGGGGSGGGGSHASDIQMTQSPSSLSASVGDRVTITCRASQSISRYLNWYQQKPGKAPKLLIYTASSLQSGVPSRFSGSGSGTDFTLTISSLQPEDFATYYCQQANRFPLTFGPGTKVDIK
# notes: V5-tagged in the assay
# Legend:
# PD-1 = PD-1 (human, UniProt Q15116 25-167, limits assumed); test: HTRF
# human IL-2 [1] = target: T1, human IL-2 (human, UniProt P60568 21-153, biotin-labeled in the IL2RB blocking assay); test: HTRF
# T1 construct: also called biotin-labeled IL-2 (Acro Biosystems IL2-H82E4)
# human IL-2 [2] = target: T1, human IL-2; test: HTRF IL-2:IL2RB
# PD-1-Fc = PD-1-Fc (UniProt Q15116 25-167, limits assumed); test: cell-based or functional assay
# Sequence of PD-1-Fc (Q15116 25-167 limits assumed): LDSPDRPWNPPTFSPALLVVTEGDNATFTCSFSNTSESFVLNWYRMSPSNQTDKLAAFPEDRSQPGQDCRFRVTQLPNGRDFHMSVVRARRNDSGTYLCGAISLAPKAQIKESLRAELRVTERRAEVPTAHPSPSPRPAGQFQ
# Sequence of PD-1 (Q15116 25-167 limits assumed): as above
# T1 sequence (P60568 21-153 limits assumed): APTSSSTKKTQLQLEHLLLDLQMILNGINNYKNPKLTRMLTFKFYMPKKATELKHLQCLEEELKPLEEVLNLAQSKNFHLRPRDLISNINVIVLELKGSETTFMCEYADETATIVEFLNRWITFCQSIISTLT
binder,measurement,setting,value
B1,PD1 Binding,PD-1,1620
same,IL2 Binding,human IL-2 [1],1560
same,IL2RB Blocking,human IL-2 [2],1780
B2,PD1 Binding,PD-1,1660
same,IL2 Binding,human IL-2 [1],2490
same,IL2RB Blocking,human IL-2 [2],1610
B3,PD1 Binding,PD-1,1550
same,IL2 Binding,human IL-2 [1],4
same,IL2RB Blocking,human IL-2 [2],1550
B4,PD1 Binding,PD-1,1680
same,IL2 Binding,human IL-2 [1],628
same,IL2RB Blocking,human IL-2 [2],1810
B5,PD1 Binding,PD-1,50
same,IL2 Binding,human IL-2 [1],247
same,IL2RB Blocking,human IL-2 [2],1110
B6,PD1 Binding,PD-1,1240
same,IL2 Binding,human IL-2 [1],2040
same,IL2RB Blocking,human IL-2 [2],910
B7,PD1 Binding,PD-1,1380
same,IL2 Binding,human IL-2 [1],293
same,IL2RB Blocking,human IL-2 [2],1210
B8,PD1 Binding,PD-1,653
same,IL2 Binding,human IL-2 [1],19
same,IL2RB Blocking,human IL-2 [2],1730
B9,PD1 Binding,PD-1,730
same,IL2 Binding,human IL-2 [1],973
same,IL2RB Blocking,human IL-2 [2],1610
B10,"IL-2 activity EC50, HEK-Blue IL-2 reporter cells, IgG1 coated wells (control)",PD-1-Fc,1.67 nM
same,"IL-2 activity EC50, HEK-Blue IL-2 reporter cells, PD-1 coated wells",PD-1-Fc,0.118 nM
B11,PD1 Binding,PD-1,995
same,IL2 Binding,human IL-2 [1],520
same,IL2RB Blocking,human IL-2 [2],1610
B12,PD1 Binding,PD-1,1300
same,IL2 Binding,human IL-2 [1],298
same,IL2RB Blocking,human IL-2 [2],1070
